Data reported in EP0910659B1, “ANTIBODIES AGAINST A COMPLEX OF CD4 AND A CHEMOKINE RECEPTOR DOMAIN, AND THEIR USE AGAINST HIV INFECTIONS” (United Biomedical, Inc., priority 1996, dated 1997).

Tests used:
"B4-rsCD4" interaction = molecular target: T1, "B4-rsCD4" interaction (Homo sapiens, UniProt P01730); experiment: ELISA inhibition assay with CD4 peptides (B4); type: binding; conditions: B4 10 µg/mL, negative = enhancement; for % inhibition of "B4-rsCD4" interaction, Conc 3: peptide 16.7 µg/mL; for % inhibition of "B4-rsCD4" interaction, Conc 2: peptide 167 µg/mL; for % inhibition of "B4-rsCD4" interaction, Conc 1: peptide 1.67 mg/mL
T1 construct: purchased American Bio-Technologies, Inc. Cambridge, MA
Protocol: (§1) ELISA Inhibition Assays. […] The preincubated sample and peptide mixture was used directly in the standard rsCD4 ELISA procedure described herein above. Percent inhibition was calculated relative to the appropriate identically diluted monoclonal antibody which was preincubated in the absence of peptide. rsCD4-induced inhibition of antibody binding in the rsCD4 ELISA was similarly measured by preincubating diluted samples, at an endpoint rsCD4 binding dilution, with the competing rsCD4 at the indicated concentration.
(§2) The signal generated at endpoint concentration (e.g. 10 µg/mL for B4 and 20 µg/mL for M2) in an rsCD4 ELISA was employed as a positive control for the competitive peptide binding studies.
Table 5 depicts per cent inhibition results obtained in the rsCD4 ELISA where designed CD4 peptides were serially diluted and individually incubated with 0.1 mL of B4 at 10 µg/mL prior to the binding of B4 to the solid phase-bound rsCD4. Peptides were employed for competitive inhibition at concentrations of 1.67 mg/mL, 167 µg/mL and 16.7 µg/mL (conc 1, conc 2, and conc 3, respectively). […] Enhancement is expressed by negative values for inhibition.

"M2-rsCD4" interaction = molecular target: T2, "M2-rsCD4" interaction (Homo sapiens, UniProt P01730); experiment: ELISA inhibition assay with CD4 peptides (M2); type: binding; conditions: M2 20 µg/mL, negative = enhancement; for % inhibition of "M2-rsCD4" interaction, Conc 3: peptide 16.7 µg/mL; for % inhibition of "M2-rsCD4" interaction, Conc 2: peptide 167 µg/mL; for % inhibition of "M2-rsCD4" interaction, Conc 1: peptide 1.67 mg/mL
T2 construct: purchased American Bio-Technologies, Inc. Cambridge, MA
Protocol: as §1, §2
Table 6 depicts the per cent inhibition results obtained in the rsCD4 ELISA where designed CD4 peptides were serially diluted as in Table 5 and were individually incubated with 0.1 mL of M2 at 20 µg/mL prior to binding M2 to the solid phase-bound rsCD4.

monoclonal antibody B4 [1] = experiment: competition ELISA: soluble rsCD4 preincubated with B4 2 µg/mL; solid-phase rsCD4
monoclonal antibody B4 [2] = experiment: ELISA inhibition: soluble rsCD4 preincubated with B4 2 µg/mL; wells coated with rsCD4
monoclonal antibody B4 [3] = experiment: competition ELISA: soluble rsCD4 5 µg/mL preincubated with B4 2 µg/mL; solid-phase rsCD4
monoclonal antibody B4 [4] = experiment: competition ELISA: soluble rsCD4 25 µg/mL preincubated with B4 2 µg/mL; solid-phase rsCD4
monoclonal antibody B4 [5] = experiment: competition ELISA: soluble rsCD4 0.2 µg/mL preincubated with B4 2 µg/mL; solid-phase rsCD4
monoclonal antibody B4 [6] = experiment: competition ELISA: soluble rsCD4 1.0 µg/mL preincubated with B4 2 µg/mL; solid-phase rsCD4
monoclonal antibody B4 [7] = experiment: competition ELISA: soluble rsCD4 0.04 µg/mL preincubated with B4 2 µg/mL; solid-phase rsCD4
monoclonal antibody B4 [8] = experiment: competition ELISA: soluble rsCD4 0.008 µg/mL preincubated with B4 2 µg/mL; solid-phase rsCD4
monoclonal antibody B4 [9] = experiment: soluble rsCD4 5 µg/mL preincubated with biotinylated B4 0.71 µg/mL, then HPB-ALL cells; no inhibition
monoclonal antibody B4 [10] = experiment: soluble rsCD4 50 µg/mL preincubated with biotinylated B4 0.71 µg/mL, then HPB-ALL cells; no inhibition
monoclonal antibody B4 [11] = experiment: soluble rsCD4 0.5 µg/mL preincubated with biotinylated B4 0.71 µg/mL, then HPB-ALL cells; no inhibition
monoclonal antibody B4 [12] = experiment: soluble rsCD4 0.05 µg/mL preincubated with biotinylated B4 0.71 µg/mL, then HPB-ALL cells; no inhibition
monoclonal antibody B4 [13] = experiment: soluble rsCD4 0.005 µg/mL preincubated with biotinylated B4 0.71 µg/mL, then HPB-ALL cells; no inhibition
monoclonal antibody B4 [14] = experiment: ELISA inhibition: soluble rsCD4 preincubated with B4 0.1 µg/mL; wells coated with rsCD4/CC-CKR5-D3 (p2047a)
monoclonal antibody B4 [15] = experiment: competition rsCD4 ELISA, B4 10 µg/mL, peptide 167 µg/mL; negative value = enhancement
monoclonal antibody B4 [16] = experiment: competition rsCD4 ELISA, B4 10 µg/mL, peptide 1.67 mg/mL; negative value = enhancement
monoclonal antibody B4 [17] = experiment: competition rsCD4 ELISA, B4 10 µg/mL, peptide 16.7 µg/mL; negative value = enhancement
[18] = molecular target: CD4 on the surface of CD4-expressing cells (host cell antigen complex comprising CD4) (human); experiment: HPB-ALL cells pre-incubated with PBS, then gp120-FITC 1:200
[19] = molecular target: gp120 of HIV-1 primary field isolate DH-12 (clade B); experiment: cell-based or functional assay
[20] = molecular target: gp120 of HIV-1 primary isolate 23135 (clade B); experiment: cell-based or functional assay
[21] = molecular target: gp120 of HIV-1 primary isolate BR014 (clade B); experiment: cell-based or functional assay
monoclonal antibody B4 [22] = experiment: competition rsCD4 ELISA, B4 10 µg/mL, peptide 167 µg/mL
monoclonal antibody B4 [23] = experiment: competition rsCD4 ELISA, B4 10 µg/mL, peptide 1.67 mg/mL
monoclonal antibody B4 [24] = experiment: competition rsCD4 ELISA, B4 10 µg/mL, peptide 16.7 µg/mL

CD4 (1-20) [1816d] was tested, and the “% inhibition of "B4-rsCD4" interaction, Conc 3” value ("B4-rsCD4" interaction) was 29%, the “% inhibition of "B4-rsCD4" interaction, Conc 2” value ("B4-rsCD4" interaction) was 53% and the “% inhibition of "B4-rsCD4" interaction, Conc 1” value ("B4-rsCD4" interaction) was 64%. The “% inhibition of "M2-rsCD4" interaction, Conc 3” value ("M2-rsCD4" interaction) was 17%, the “% inhibition of "M2-rsCD4" interaction, Conc 2” value ("M2-rsCD4" interaction) was 60% and the “% inhibition of "M2-rsCD4" interaction, Conc 1” value ("M2-rsCD4" interaction) was 74%.

In the case of “recombinant soluble CD4 (rsCD4) (receptor)”, the IC50 (monoclonal antibody B4 [1]) is reported as 1 µg/mL, the IC50 (monoclonal antibody B4 [2]) is reported as 0.72 µg/mL and the % Inhibition (monoclonal antibody B4 [3]) is reported as 91%. The A492 nm (monoclonal antibody B4 [3]) was 0.061 A492, the % Inhibition (monoclonal antibody B4 [4]) was 91.9% and the A492 nm (monoclonal antibody B4 [4]) was 0.055 A492. The % Inhibition (monoclonal antibody B4 [5]) was 6.7%, the A492 nm (monoclonal antibody B4 [5]) was 0.633 A492 and the % Inhibition (monoclonal antibody B4 [6]) was 49.9%. For the same substance, the A492 nm (monoclonal antibody B4 [6]) was 0.34 A492, the % Inhibition (monoclonal antibody B4 [7]) was 6.1% and the A492 nm (monoclonal antibody B4 [7]) was 0.637 A492. It also gave a % Inhibition (monoclonal antibody B4 [8]) of -4.7%, an A492 nm (monoclonal antibody B4 [8]) of 0.711 A492 and a % Positive cells (biotinylated B4 staining of HPB-ALL) (monoclonal antibody B4 [9]) of over 95%. For the same substance, the staining (biotinylated B4 on HPB-ALL) (monoclonal antibody B4 [9]) was 3 +, the % Positive cells (biotinylated B4 staining of HPB-ALL) (monoclonal antibody B4 [10]) was over 95% and the staining (biotinylated B4 on HPB-ALL) (monoclonal antibody B4 [10]) was 3 +. For the same substance, the % Positive cells (biotinylated B4 staining of HPB-ALL) (monoclonal antibody B4 [11]) was over 95%, the staining (biotinylated B4 on HPB-ALL) (monoclonal antibody B4 [11]) was 3 + and the % Positive cells (biotinylated B4 staining of HPB-ALL) (monoclonal antibody B4 [12]) was over 95%. The staining (biotinylated B4 on HPB-ALL) (monoclonal antibody B4 [12]) was 3 +, the % Positive cells (biotinylated B4 staining of HPB-ALL) (monoclonal antibody B4 [13]) was over 95% and the staining (biotinylated B4 on HPB-ALL) (monoclonal antibody B4 [13]) was 3 +. It also gave an IC50 (monoclonal antibody B4 [14]) of 0.047 µg/mL.

“p1624a (C)CD4(36-47)(C), cyclic (peptide)” showed a % inhibition of B4-rsCD4 interaction (monoclonal antibody B4 [15]) of -207%, a % inhibition of B4-rsCD4 interaction (monoclonal antibody B4 [16]) of -215% and a % inhibition of B4-rsCD4 interaction (monoclonal antibody B4 [17]) of -108%.

HIV-1 gp120 (ligand) showed a % of cells stained by gp120-FITC [18] of over 90%.

Work on “recombinant human monoclonal antibody IgG1 b12” yielded an HIV-1 DH-12 (chimp PBL-grown), PBMC Infection Reduction Assay [19] of 1.38 logs killed, a 50% Inhbt., HIV-1 primary isolate 23135, MT-2 Microplaque Neutralization Assay [20] of 12.8 µg/mL and a 50% Inhbt., HIV-1 primary isolate BR014, MT-2 Microplaque Neutralization Assay [21] of over 50 µg/mL.

p1816d CD4(1-20) (peptide) was tested, and the % inhibition of B4-rsCD4 interaction (monoclonal antibody B4 [22]) was 53%, the % inhibition of B4-rsCD4 interaction (monoclonal antibody B4 [23]) was 64% and the % inhibition of B4-rsCD4 interaction (monoclonal antibody B4 [24]) was 29%.

With CD4 (36-47) [1624a] the “% inhibition of "B4-rsCD4" interaction, Conc 3” value ("B4-rsCD4" interaction) was -108%, the “% inhibition of "B4-rsCD4" interaction, Conc 2” value ("B4-rsCD4" interaction) was -207% and the “% inhibition of "B4-rsCD4" interaction, Conc 1” value ("B4-rsCD4" interaction) was -215%. The “% inhibition of "M2-rsCD4" interaction, Conc 3” value ("M2-rsCD4" interaction) was -141%, the “% inhibition of "M2-rsCD4" interaction, Conc 2” value ("M2-rsCD4" interaction) was -251% and the “% inhibition of "M2-rsCD4" interaction, Conc 1” value ("M2-rsCD4" interaction) was -261%.

In the case of CD4 (297-351*) [1868a], the “% inhibition of "B4-rsCD4" interaction, Conc 3” value ("B4-rsCD4" interaction) is reported as 19%, the “% inhibition of "B4-rsCD4" interaction, Conc 2” value ("B4-rsCD4" interaction) is reported as 30% and the “% inhibition of "B4-rsCD4" interaction, Conc 1” value ("B4-rsCD4" interaction) is reported as 38%. For the same substance, the “% inhibition of "M2-rsCD4" interaction, Conc 3” value ("M2-rsCD4" interaction) was 17%, the “% inhibition of "M2-rsCD4" interaction, Conc 2” value ("M2-rsCD4" interaction) was 43% and the “% inhibition of "M2-rsCD4" interaction, Conc 1” value ("M2-rsCD4" interaction) was 56%.

p1768a CD4(154-165) (peptide) showed a % inhibition of B4-rsCD4 interaction (monoclonal antibody B4 [22]) of 37%, a % inhibition of B4-rsCD4 interaction (monoclonal antibody B4 [23]) of 82% and a % inhibition of B4-rsCD4 interaction (monoclonal antibody B4 [24]) of 6%.

p1813b HBVTh-GG-CD4(79-88) (peptide) was tested, and the % inhibition of B4-rsCD4 interaction (monoclonal antibody B4 [22]) was 69%, the % inhibition of B4-rsCD4 interaction (monoclonal antibody B4 [23]) was 93% and the % inhibition of B4-rsCD4 interaction (monoclonal antibody B4 [24]) was 32%.

For p1768b HBVTh-GG-CD4(154-165) (peptide), the % inhibition of B4-rsCD4 interaction (monoclonal antibody B4 [22]) was 44%, the % inhibition of B4-rsCD4 interaction (monoclonal antibody B4 [23]) was 76% and the % inhibition of B4-rsCD4 interaction (monoclonal antibody B4 [24]) was 11%.

In the case of CD4 (154-165) [1768a], the “% inhibition of "B4-rsCD4" interaction, Conc 3” value ("B4-rsCD4" interaction) is reported as 6%, the “% inhibition of "B4-rsCD4" interaction, Conc 2” value ("B4-rsCD4" interaction) is reported as 37% and the “% inhibition of "B4-rsCD4" interaction, Conc 1” value ("B4-rsCD4" interaction) is reported as 82%. The “% inhibition of "M2-rsCD4" interaction, Conc 3” value ("M2-rsCD4" interaction) was 19%, the “% inhibition of "M2-rsCD4" interaction, Conc 2” value ("M2-rsCD4" interaction) was 36% and the “% inhibition of "M2-rsCD4" interaction, Conc 1” value ("M2-rsCD4" interaction) was 86%.

In the case of p1868a CD4(297-351), cyclic (peptide), the % inhibition of B4-rsCD4 interaction (monoclonal antibody B4 [22]) is reported as 30%, the % inhibition of B4-rsCD4 interaction (monoclonal antibody B4 [23]) is reported as 38% and the % inhibition of B4-rsCD4 interaction (monoclonal antibody B4 [24]) is reported as 19%.
